Test results: the supplement of paper PMC9112550, “Optimization of the antimicrobial peptide Bac7 by deep mutational scanning” (BMC Biology, 2022)

These sequences were tested on Escherichia coli TOP10 (assay: shrunken log2 fold change of peptide-encoding DNA abundance (4.5 h post-induction vs induction); higher = less antimicrobial activity (less host growth inhibition)). Details: time post-induction: 4.5 h; library: site-saturation at positions 5, 18, 19, 20.
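Also: peptides expressed intracellularly from a pBAD plasmid library in pooled LB shake-flask culture, induced with 0.3% L-arabinose, DNA abundance read by NGS, three biological replicates, DESeq2 with apeglm shrinkage.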

Row | Sequence | shrunken log2 fold change
1 | RRIRPRPPRLPRPRPRPFWTPRP | -0.0762
2 | RRIRMRPPRLPRPRPRPITTPRP | -0.0401
3 | RRIRLRPPRLPRPRPRPGAAPRP | 0.543
4 | RRIRYRPPRLPRPRPRPYSDPRP | -0.237
5 | RRIRMRPPRLPRPRPRPSQSPRP | 0.53
6 | RRIRYRPPRLPRPRPRPGSGPRP | -0.0839
7 | RRIRKRPPRLPRPRPRPYFYPRP | -0.274
8 | RRIRLRPPRLPRPRPRPATKPRP | 0.0731
9 | RRIRLRPPRLPRPRPRPYKTPRP | -0.352
10 | RRIRMRPPRLPRPRPRPDADPRP | 3.36
11 | RRIRNRPPRLPRPRPRPRKMPRP | 0.263
12 | RRIRWRPPRLPRPRPRPYYCPRP | -0.00583
13 | RRIRLRPPRLPRPRPRPMILPRP | -0.677
14 | RRIRARPPRLPRPRPRPFTAPRP | -0.111
15 | RRIRYRPPRLPRPRPRPPRVPRP | -0.0115
16 | RRIRWRPPRLPRPRPRPHISPRP | 0.00485
17 | RRIRTRPPRLPRPRPRPHGDPRP | -0.146
18 | RRIRERPPRLPRPRPRPDYYPRP | -0.603
19 | RRIRKRPPRLPRPRPRPCEWPRP | -0.0222
20 | RRIRKRPPRLPRPRPRPYWAPRP | -0.448
21 | RRIRMRPPRLPRPRPRPASYPRP | 0.0757
22 | RRIRYRPPRLPRPRPRPCCIPRP | -0.129
23 | RRIRTRPPRLPRPRPRPLCCPRP | 1
24 | RRIRPRPPRLPRPRPRPLGAPRP | 0.426
25 | RRIRERPPRLPRPRPRPLKAPRP | 0.225

Row | Sequence | shrunken log2 fold change
26 | RRIRHRPPRLPRPRPRPKPPPRP | 0.55
27 | RRIRWRPPRLPRPRPRPQMNPRP | -0.243
28 | RRIRARPPRLPRPRPRPAQNPRP | 0.333
29 | RRIRLRPPRLPRPRPRPTLQPRP | 0.0553
30 | RRIRLRPPRLPRPRPRPEPDPRP | 0.342
31 | RRIRKRPPRLPRPRPRPTNKPRP | 0.14
32 | RRIRKRPPRLPRPRPRPGFDPRP | 0.98
33 | RRIRMRPPRLPRPRPRPWGGPRP | 0.414
34 | RRIRLRPPRLPRPRPRPMMMPRP | -0.114
35 | RRIRFRPPRLPRPRPRPAPVPRP | 0.323
36 | RRIRDRPPRLPRPRPRPNWSPRP | -0.0955
37 | RRIRARPPRLPRPRPRPHAWPRP | 0.375
38 | RRIRGRPPRLPRPRPRPDFFPRP | 1.1
39 | RRIRLRPPRLPRPRPRPETSPRP | -0.0221
40 | RRIRKRPPRLPRPRPRPAHWPRP | 0.719
41 | RRIRGRPPRLPRPRPRPYGGPRP | -0.26
42 | RRIRARPPRLPRPRPRPKDWPRP | 0.578
43 | RRIRNRPPRLPRPRPRPRELPRP | 0.287
44 | RRIRPRPPRLPRPRPRPGLAPRP | 0.841
45 | RRIRLRPPRLPRPRPRPNTGPRP | -0.359
46 | RRIRYRPPRLPRPRPRPANHPRP | -0.463
47 | RRIRFRPPRLPRPRPRPAVKPRP | -0.137
48 | RRIRSRPPRLPRPRPRPGCSPRP | -0.115
49 | RRIRFRPPRLPRPRPRPITMPRP | -0.503
50 | RRIRSRPPRLPRPRPRPSDEPRP | -0.673

Row | Sequence | shrunken log2 fold change
51 | RRIRLRPPRLPRPRPRPMVSPRP | -0.0017
52 | RRIRHRPPRLPRPRPRPQSGPRP | 0.165
53 | RRIRNRPPRLPRPRPRPGSHPRP | -0.291
54 | RRIRRRPPRLPRPRPRPYDTPRP | 0.0504
55 | RRIRSRPPRLPRPRPRPACVPRP | 0.224
56 | RRIRWRPPRLPRPRPRPTVWPRP | 0.533
57 | RRIRQRPPRLPRPRPRPMCLPRP | -0.184
58 | RRIRKRPPRLPRPRPRPFMEPRP | -0.00271
59 | RRIRVRPPRLPRPRPRPIPFPRP | 0.0609
60 | RRIRFRPPRLPRPRPRPSYQPRP | -0.451
61 | RRIRYRPPRLPRPRPRPLHLPRP | -0.516
62 | RRIRHRPPRLPRPRPRPNKYPRP | -0.782
63 | RRIRNRPPRLPRPRPRPGLRPRP | 0.0575
64 | RRIRTRPPRLPRPRPRPLTSPRP | -0.255
65 | RRIRKRPPRLPRPRPRPSVHPRP | -0.118
66 | RRIRMRPPRLPRPRPRPEGDPRP | 4.15
67 | RRIRPRPPRLPRPRPRPFEYPRP | -0.0601
68 | RRIRNRPPRLPRPRPRPCNDPRP | -0.274
69 | RRIRQRPPRLPRPRPRPFEWPRP | 0.0112
70 | RRIRFRPPRLPRPRPRPSSAPRP | -0.0032
71 | RRIRQRPPRLPRPRPRPKKEPRP | 0.00476
72 | RRIRPRPPRLPRPRPRPLHGPRP | 0.0827
73 | RRIRHRPPRLPRPRPRPICGPRP | 0.00743
74 | RRIRNRPPRLPRPRPRPSMEPRP | -0.118
75 | RRIRRRPPRLPRPRPRPSAKPRP | 0.0742

Row | Sequence | shrunken log2 fold change
76 | RRIRWRPPRLPRPRPRPPPIPRP | 0.574
77 | RRIRCRPPRLPRPRPRPLREPRP | 0.562
78 | RRIRARPPRLPRPRPRPGPRPRP | 1.22
79 | RRIRWRPPRLPRPRPRPNNFPRP | -0.0323
80 | RRIRTRPPRLPRPRPRPCWYPRP | 4
81 | RRIRMRPPRLPRPRPRPPCFPRP | 0.257
82 | RRIRIRPPRLPRPRPRPEWHPRP | -0.514
83 | RRIRHRPPRLPRPRPRPICLPRP | -0.225
84 | RRIRLRPPRLPRPRPRPKESPRP | 0.0595
85 | RRIRNRPPRLPRPRPRPFEHPRP | 0.0659
86 | RRIRGRPPRLPRPRPRPVYNPRP | 0.0349
87 | RRIRLRPPRLPRPRPRPKYVPRP | -0.126
88 | RRIRYRPPRLPRPRPRPSLVPRP | -0.291
89 | RRIRHRPPRLPRPRPRPRAGPRP | 0.638
90 | RRIRKRPPRLPRPRPRPHFSPRP | -0.0531
91 | RRIRYRPPRLPRPRPRPFKSPRP | -0.0165
92 | RRIRERPPRLPRPRPRPSCHPRP | -0.934
93 | RRIRNRPPRLPRPRPRPKNEPRP | -0.0366
94 | RRIRDRPPRLPRPRPRPYVIPRP | -0.116
95 | RRIRARPPRLPRPRPRPRDLPRP | -0.162
96 | RRIRLRPPRLPRPRPRPKRKPRP | -0.314
97 | RRIRFRPPRLPRPRPRPHKAPRP | 0.0324
98 | RRIRNRPPRLPRPRPRPFKGPRP | -0.0902
99 | RRIRYRPPRLPRPRPRPDNFPRP | -1.09
100 | RRIRYRPPRLPRPRPRPWIRPRP | -0.371

Row | Sequence | shrunken log2 fold change
101 | RRIRMRPPRLPRPRPRPNKPPRP | -0.0387
102 | RRIRVRPPRLPRPRPRPTHFPRP | -0.266
103 | RRIRDRPPRLPRPRPRPMIKPRP | -0.222
104 | RRIRPRPPRLPRPRPRPGEEPRP | 0.359
105 | RRIRMRPPRLPRPRPRPHARPRP | 0.299
106 | RRIRVRPPRLPRPRPRPSFSPRP | -0.498
107 | RRIRLRPPRLPRPRPRPKTSPRP | 0.0111
108 | RRIRCRPPRLPRPRPRPTVNPRP | -0.184
109 | RRIRMRPPRLPRPRPRPKIYPRP | -0.107
110 | RRIRERPPRLPRPRPRPGCFPRP | 0.199
111 | RRIRIRPPRLPRPRPRPWWIPRP | -0.0829
112 | RRIRDRPPRLPRPRPRPSYRPRP | 0.0164
113 | RRIRCRPPRLPRPRPRPNSCPRP | -0.394
114 | RRIRARPPRLPRPRPRPWFMPRP | -0.108
115 | RRIRFRPPRLPRPRPRPITQPRP | -0.278
116 | RRIRMRPPRLPRPRPRPTEHPRP | 0.443
117 | RRIRDRPPRLPRPRPRPVTQPRP | -0.0479
118 | RRIRTRPPRLPRPRPRPSPRPRP | 0.396
119 | RRIRNRPPRLPRPRPRPGRTPRP | 0.153
120 | RRIRNRPPRLPRPRPRPQACPRP | -0.0265
121 | RRIRSRPPRLPRPRPRPYVWPRP | -0.332
122 | RRIRCRPPRLPRPRPRPKPNPRP | 0.572
123 | RRIRHRPPRLPRPRPRPYCIPRP | -0.21
124 | RRIRFRPPRLPRPRPRPLCGPRP | -0.154
125 | RRIRCRPPRLPRPRPRPCYGPRP | -0.28

Row | Sequence | shrunken log2 fold change
126 | RRIRDRPPRLPRPRPRPHSSPRP | 0.217
127 | RRIRMRPPRLPRPRPRPKHWPRP | 0.91
128 | RRIRGRPPRLPRPRPRPRTTPRP | 1.06
129 | RRIRIRPPRLPRPRPRPAEFPRP | -0.0793
130 | RRIRQRPPRLPRPRPRPGINPRP | -0.296
131 | RRIRNRPPRLPRPRPRPKSYPRP | -0.0423
132 | RRIRTRPPRLPRPRPRPNTHPRP | -0.451
133 | RRIRNRPPRLPRPRPRPPPVPRP | 0.933
134 | RRIRIRPPRLPRPRPRPNAPPRP | 0.00635
135 | RRIRSRPPRLPRPRPRPNPPPRP | -0.222
136 | RRIRRRPPRLPRPRPRPFHKPRP | 0.0306
137 | RRIRNRPPRLPRPRPRPTLRPRP | 0.334
138 | RRIRVRPPRLPRPRPRPTPTPRP | 0.349
139 | RRIRPRPPRLPRPRPRPARAPRP | 0.438
140 | RRIRRRPPRLPRPRPRPIEVPRP | 0.0048
141 | RRIRARPPRLPRPRPRPRTQPRP | 0.634
142 | RRIRARPPRLPRPRPRPVTTPRP | 0.342
143 | RRIRFRPPRLPRPRPRPNHDPRP | -0.332
144 | RRIRTRPPRLPRPRPRPDMSPRP | -0.0305
145 | RRIRDRPPRLPRPRPRPCDLPRP | -0.0487
146 | RRIRVRPPRLPRPRPRPQWVPRP | -0.222
147 | RRIRYRPPRLPRPRPRPQPVPRP | -0.258
148 | RRIRWRPPRLPRPRPRPEPCPRP | 0.157
149 | RRIRTRPPRLPRPRPRPSTEPRP | -0.456
150 | RRIRYRPPRLPRPRPRPIWWPRP | 0.136
